Source: publication PMC4080450, “The pseudo GTPase CENP-M drives human kinetochore assembly” (eLife, 2014)

Biological target: T1, CENP-H/His-CENP-K complex (human, UniProt Q9H3R5 1-247; Q9BS16 1-269)
T1 construct: human CENP-H, without any tag; human CENP-K; also called CENP-H/K complex; source: Tnao38 insect cells, co-expressed, purified; not shown: His6, N-terminal, kept
Test: SEC; analytical SEC co-elution (Superdex200 5/150 or Superose6 5/150), 4°C; proteins mixed in 50 µl, at least 2 hr on ice; SEC buffer with 150 mM NaCl
Conditions: both partners purified

T1 sequence (Q9H3R5 whole entry, chain 1 of 2): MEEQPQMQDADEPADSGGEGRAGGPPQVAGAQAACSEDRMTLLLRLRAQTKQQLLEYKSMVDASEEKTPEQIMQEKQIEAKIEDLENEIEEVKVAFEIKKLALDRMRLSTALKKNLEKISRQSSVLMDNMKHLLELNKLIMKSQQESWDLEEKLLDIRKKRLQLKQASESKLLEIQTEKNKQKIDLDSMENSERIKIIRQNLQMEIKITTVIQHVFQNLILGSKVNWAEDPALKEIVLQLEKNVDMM
T1 sequence (Q9BS16 whole entry, chain 2 of 2): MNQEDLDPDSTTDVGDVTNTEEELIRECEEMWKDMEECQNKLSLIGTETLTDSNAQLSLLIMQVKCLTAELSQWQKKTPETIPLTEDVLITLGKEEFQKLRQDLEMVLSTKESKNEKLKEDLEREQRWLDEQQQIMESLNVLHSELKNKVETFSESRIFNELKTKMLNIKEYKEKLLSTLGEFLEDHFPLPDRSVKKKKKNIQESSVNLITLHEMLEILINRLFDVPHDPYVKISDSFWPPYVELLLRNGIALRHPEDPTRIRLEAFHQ

- binding result: binds
B1: His-CENP-I^57–281 (domain or fragment, human, UniProt Q92674 57-281, looked up)
chain: ADDQAEEDALQMAVGYFEKGPIKASQNKDKTLEKHLKTVENVAWKNGLASEEIDILLNIALSGKFGNAVNTRILKCMIPATVISEDSVVKAVSWLCVGKCSGSTKVLFYRWLVAMFDFIDRKEQINLLYGFFFASLQDDALCPYVCHLLYLLTKKENVKPFRVRKLLDLQAKMGMQPHLQALLSLYKFFAPALISVSLPVRKKIYFKNSENLWKTALLAVKQRNR
notes: CENP-I residues 57-281; no methods paragraph tells how this fragment was made; also called N-terminal region of CENP-I; I^N; source: recombinant, expressed in a soluble form
